The text below walks through data of paper PMC10641286.

In experiment [1] the target is chymase (UniProt P23946). Description: second-order rate constant of inhibition, discontinuous method (residual enzymatic activity); rIxsS41 25-300 nM (chymase) or 100-1600 nM (cathepsin G) pre-incubated 0-15 min at 37°C with constant protease (0.1 µg); kobs plotted against rIxsS41.
For experiment [2], the target named is cathepsin G (UniProt P08311). The description is as above.
In experiment [3] the target is chymase (UniProt P23946). The experiment is described as above. The source holds these as a separate data set.
Experiment [4] concerns the target cathepsin G (UniProt P08311). Described as above. This is another data set of the same source.
Experiment [5] deals with chymase (UniProt P23946). The experiment in a line: stoichiometry of inhibition (residual enzymatic activity, colorimetric substrate); various concentrations of rIxsS41 (molar ratios 0-10) with a constant concentration of protease, 1 h at 37°C; linear regression of the inhibitory curve. The settings on record: scale: molecules of rIxsS41 per molecule of protease.
In experiment [6] the target is cathepsin G (UniProt P08311). The description is as above. The settings on record: scale: molecules of rIxsS41 per molecule of protease.
In experiment [7] the target is chymase (UniProt P23946).
Experiment [8] deals with chymase (UniProt P23946). This is another data set of the same source.
For a further experiment, the target named is trypsin IV (UniProt P35030).
Sequence of UniProt P35030 (P35030 81-304): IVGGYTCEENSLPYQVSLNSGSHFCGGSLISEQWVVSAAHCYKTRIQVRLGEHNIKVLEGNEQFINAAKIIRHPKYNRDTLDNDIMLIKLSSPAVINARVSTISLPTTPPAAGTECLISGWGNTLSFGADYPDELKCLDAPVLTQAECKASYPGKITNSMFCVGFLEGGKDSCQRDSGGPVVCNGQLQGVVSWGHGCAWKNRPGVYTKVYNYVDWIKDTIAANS
Experiment [9] has as its target cathepsin G (UniProt P08311).

Where two headings read alike, the source gives them in different places.

Sequence of UniProt P23946 (P23946 22-247): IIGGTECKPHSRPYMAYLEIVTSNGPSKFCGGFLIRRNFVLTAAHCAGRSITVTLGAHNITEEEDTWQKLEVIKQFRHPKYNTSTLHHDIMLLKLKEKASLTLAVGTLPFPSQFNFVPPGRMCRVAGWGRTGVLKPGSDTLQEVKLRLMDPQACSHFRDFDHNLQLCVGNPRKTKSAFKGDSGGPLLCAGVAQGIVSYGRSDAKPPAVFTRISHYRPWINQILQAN
Sequence of UniProt P08311 (P08311 21-244): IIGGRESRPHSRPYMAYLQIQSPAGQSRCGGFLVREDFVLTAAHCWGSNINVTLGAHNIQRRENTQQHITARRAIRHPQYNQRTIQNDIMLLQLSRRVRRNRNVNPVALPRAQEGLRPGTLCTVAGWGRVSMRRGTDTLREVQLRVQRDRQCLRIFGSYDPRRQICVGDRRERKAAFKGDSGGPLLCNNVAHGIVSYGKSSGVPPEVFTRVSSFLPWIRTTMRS

Consider “recombinant Ixodes scapularis nymph tick saliva serpin 41 (rIxsS41) (natural protein)”, for which the ka (second-order rate constant of inhibition) in the experiment with chymase [1] amounted to 2400 M⁻¹ s⁻¹; with cathepsin G [2] it was 1700 M⁻¹ s⁻¹; with chymase [3], 6600 M⁻¹ s⁻¹; in the experiment with cathepsin G [4] it was 2400 M⁻¹ s⁻¹. The stoichiometry of inhibition (SI) with chymase [5] is 2.8; with cathepsin G [6], 2.2. Besides, the C48/80-induced (chymase-mediated) paw edema in BALB/c mice, co-injection of C48/80 (1 µg) with rIxsS41 (25 µg); the chymase is the mouse's own with chymase [7] amounted to 85%. Also, the inhibition of enzymatic activity (chromogenic substrate hydrolysis), rIxsS41 1 µM, thrombin 19.8 nM, pre-incubated 15 min at 37°C in the experiment with thrombin was 100%. The substance also gave an inhibition of enzymatic activity (chromogenic substrate hydrolysis), rIxsS41 1 µM, chymase 34.2 nM, pre-incubated 15 min at 37°C with chymase [8] of 100%. For the same substance, the inhibition of enzymatic activity (chromogenic substrate hydrolysis), rIxsS41 1 µM, chymotrypsin 25.7 nM, pre-incubated 15 min at 37°C with chymotrypsin was found to be 100%. The inhibition of enzymatic activity (chromogenic substrate hydrolysis), rIxsS41 1 µM, pancreatic trypsin 0.5 nM, pre-incubated 15 min at 37°C with pancreatic trypsin worked out at 100%. The substance also returned an inhibition of enzymatic activity (chromogenic substrate hydrolysis), rIxsS41 1 µM, trypsin IV 12.5 nM, pre-incubated 15 min at 37°C with trypsin IV of 100%. For the same substance, the inhibition of enzymatic activity (chromogenic substrate hydrolysis), rIxsS41 1 µM, cathepsin G 154.4 nM, pre-incubated 15 min at 37°C in the experiment with cathepsin G [9] turned out to be 100%.
